For test [1], the target named is T1, DR1 (DRA*0101/DRB1*0101) (Homo sapiens, UniProt P01903+P01911, A100R/D57E/F55L/F60I/F76Y/I96L/L162R/M171V/P40L/Q125E/R42F/V115G/Y59C). As to the kind of experiment: Scintillation proximity assay (SPA), competitive, DR1. Format: binding. As to conditions: 30 nM DR1 α and β chain; 2 nM 125I labeled YHA306-318; refolding buffer pH 8; 24 h 18°C; streptavidin SPA beads. (In general: In a scintillation proximity assay essentially only radioactivity close to the scintillant gives light.)

Test [2] deals with T1, DR1 (DRA*0101/DRB1*0101). Description: Competitive peptide-HLA-DR1 binding assay, radioactive spun column. As to conditions: competition with 125I labelled (Y)HA306–318, spun column assay.

B1: Invariant Chain: a recombinant version of the extracellular part of human invariant chain (positions 73–208) (protein)
chain: QQQGRLDKLTVTSQNLQLENLRMKLPKPPKPVSKMRMATPLLMQALPMGALPQGPMQNATKYGNMTEDHVMHLLQNADPLKVYPPLKGSFPENLRHLKNTMETIDWKVFESWMHHWLLFEMSRHSLEQKPTDAPPK
With B1, the “binder to DR1 (in words), SPA” value with DR1 (DRA*0101/DRB1*0101) [1] was “good binders”. For the same molecule, the “binder to DR1 (in words)” value with DR1 (DRA*0101/DRB1*0101) [2] is listed as “good binders”.

The record behind these values is publication PMC2690590, “Functional recombinant MHC class II molecules and high-throughput peptide-binding assays” (Immunome Research, 2009).
